{"source": "paper PMC11761711", "about": "“Insights into the flexibility of the domain‐linking loop in actinobacterial coproheme decarboxylase through structures and molecular dynamics simulations” (Protein Science : A Publication of the Protein Society, 2025)", "biological_target": "the molecule itself", "assay": "cryo-EM structure; apo-CdChdC, SEC-purified, 70 to 120 uM on grids, single-particle reconstruction with C5 symmetry, 2.27 A", "data": [{"protein": "Corynebacterium diphtheriae coproheme decarboxylase (enzyme, coproheme decarboxylase (ChdC) of Corynebacterium diphtheriae, wild type; Homopentamer; also called CdChdC; apo-CdChdC; source: recombinant, expressed and purified as described previously (Michlits et al. 2020); Ni2+ column, HRV 3C protease cleavage, SEC) MAEKLNFEELNSMQRYSQFAVFRAIPGALGSDRAEIVAQAQSFFDGLETAGKVEVRGIYDLAGCRAEADFMIWWIAEEFEEIQAAFARFRRETVLGQVSEVAWLGNSLHRPAEFNRSHLPSFIMGEIPGDWITVYPFVRSYDWYIMDPQKRRKILAEHGQAARDFPDVRANTVPAFALGDYEWMLAFEAPRLDRIVDLMHKMRYTEARLHVREETPFFTGRRVSEVSELVNVLP", "values": [{"measurement": "stoichiometry N", "result": 5}]}]}
